Here are results for seven substances from patent publication US20240043522A1.

The target of test [1] is biotinylated human FcRn protein (human) (UniProt P55899). Description: SPR (Biacore T200), biotinylated hFcRn captured on CAP chip, antibody as analyte. A general note: Surface plasmon resonance follows binding to a sensor surface in real time, without labels.
Test [2] deals with His-tagged recombinant human FcγRIIIa/CD16a (V158) (human) (UniProt P08637). Briefly: SPR (Biacore T200), His-tagged FcγR captured by anti-His, antibody as analyte, 1:1 kinetic model.
Chain of His-tagged recombinant human FcγRIIIa/CD16a (V158) (human) (P08637 17-208 F176V limits assumed): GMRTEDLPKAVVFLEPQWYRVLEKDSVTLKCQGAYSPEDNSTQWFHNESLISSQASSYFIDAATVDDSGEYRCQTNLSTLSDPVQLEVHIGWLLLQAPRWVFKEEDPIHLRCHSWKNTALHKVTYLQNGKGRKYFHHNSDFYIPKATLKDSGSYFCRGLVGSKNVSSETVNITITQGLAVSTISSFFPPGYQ
The target of test [3] is His-tagged recombinant human FcγRIIa/CD32a (R167) (human) (UniProt P12318). The test is described as above.
Chain of His-tagged recombinant human FcγRIIa/CD32a (R167) (human) (P12318 36-218 H167R limits assumed): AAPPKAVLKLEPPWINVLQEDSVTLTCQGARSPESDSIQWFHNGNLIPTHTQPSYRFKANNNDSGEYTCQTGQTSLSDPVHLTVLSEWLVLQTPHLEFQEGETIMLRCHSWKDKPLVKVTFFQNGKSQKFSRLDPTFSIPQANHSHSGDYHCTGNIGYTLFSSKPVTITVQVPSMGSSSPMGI
The target of test [4] is His-tagged recombinant mouse FcγR4/CD16-2 (mouse). The description is as above.
Test [5] concerns the target His-tagged recombinant human FcγRIIb/c/CD32b/c (human) (UniProt P31994). Described as above.
Test [6] addresses His-tagged recombinant human FcγRI/CD64 (human) (UniProt P12314). Described as above.

Bounds are passed on as bounds.

Chain of His-tagged recombinant human FcγRI/CD64 (human) (P12314 16-288 limits assumed): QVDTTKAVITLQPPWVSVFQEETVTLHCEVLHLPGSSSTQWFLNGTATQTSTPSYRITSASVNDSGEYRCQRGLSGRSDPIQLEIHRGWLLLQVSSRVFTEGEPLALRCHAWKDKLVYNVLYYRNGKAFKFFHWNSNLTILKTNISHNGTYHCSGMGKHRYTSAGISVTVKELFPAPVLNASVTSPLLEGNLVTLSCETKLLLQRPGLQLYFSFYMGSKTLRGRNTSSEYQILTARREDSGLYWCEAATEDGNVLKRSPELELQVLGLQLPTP
Chain of biotinylated human FcRn protein (human) (P55899 24-297 limits assumed, form in doubt, chain 1 of 2): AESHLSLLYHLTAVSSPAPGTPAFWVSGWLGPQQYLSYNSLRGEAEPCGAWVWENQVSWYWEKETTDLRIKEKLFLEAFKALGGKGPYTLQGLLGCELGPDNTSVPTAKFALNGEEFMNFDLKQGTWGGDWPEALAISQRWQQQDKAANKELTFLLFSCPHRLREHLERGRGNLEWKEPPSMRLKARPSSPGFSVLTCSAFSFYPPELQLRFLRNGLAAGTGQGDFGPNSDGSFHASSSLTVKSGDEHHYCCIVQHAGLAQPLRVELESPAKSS
Chain of biotinylated human FcRn protein (human) (P61769 21-119 limits assumed, form in doubt, chain 2 of 2, further chain): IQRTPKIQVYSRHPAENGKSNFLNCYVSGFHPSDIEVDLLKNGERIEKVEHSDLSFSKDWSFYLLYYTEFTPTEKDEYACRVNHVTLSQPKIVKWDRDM
Chain of His-tagged recombinant human FcγRIIb/c/CD32b/c (human) (P31994 46-217 limits assumed): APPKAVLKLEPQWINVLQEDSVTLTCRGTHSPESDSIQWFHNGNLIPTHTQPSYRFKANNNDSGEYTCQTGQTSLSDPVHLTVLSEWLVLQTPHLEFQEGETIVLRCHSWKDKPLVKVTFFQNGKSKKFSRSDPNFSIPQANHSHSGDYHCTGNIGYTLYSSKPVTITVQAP

“mab06 (adalimumab Fab, upside-down IgG1 Fc, no linker between CH1 and CH2) (antibody)”: the Kd in test [1] was determined as 528 nM.
Regarding “mab03 (adalimumab Fab, IgG2 Fc-backbone) (antibody)”, the Kd was 342 nM in test [1]; above 10000 nM in test [2]; above 5000 nM in test [3]; above 10000 nM in test [4]; above 10000 nM in test [5].
In the case of “mab01 (adalimumab, IgG1 wild-type) (antibody)”, the Kd is 361 nM in test [1]; 0.8 nM in test [6]; 656 nM in test [2]; 3280 nM in test [3]; 827 nM in test [4]; above 10000 nM in test [5].
Turning to “mab04 (adalimumab Fab, IgG1 E269R, K322A) (antibody)”, the Kd in test [1] was 357 nM; in test [6] it was 6.7 nM; in test [2] it was above 10000 nM; in test [4], above 5000 nM.
“mab02 (adalimumab Fab, IgG1 L234A/L235A N297A, aglycosylated) (antibody)”: in test [1], the Kd was determined as 263 nM.
In test [1], “mab07 (adalimumab Fab, upside-down IgG1 Fc with 19GS-linker between CH1 and CH2) (antibody)” showed a Kd of 348 nM.
“mab05 (adalimumab Fab, IgG1 L234A/L235A P329A) (antibody)”: the results for the Kd in test [1] and in test [6] were 265 nM and above 10000 nM, respectively.

In general, Kd refers to the equilibrium constant for the complex coming apart.
